Measurements reported in US9289506B2, “Surface binding of nanoparticle based drug delivery to tissue” (Massachusetts Institute of Technology, priority 2013, dated 2016).
pKd: −log10 of the molar value. Several values for one entry are separate records, joined by “and”; a condition that tells them apart may be missing. Identical values can stand only once.

Assays:
[1] = Competitive binding of FITC-Avidin and unlabeled Avidin in cartilage (binding isotherm fit); design: species or system bovine; conditions: best fit of binding isotherm to FIG. 13 data
Protocol: To test this hypothesis, competitive binding experiments were performed in which 3 mm diameter cartilage disks were equilibrated for 3 days in 300 μl buffer containing a fixed amount of (fluorescently labeled) FITC-Avidin (1 μM) and graded amounts of unlabeled Avidin (0, 10, 76, 100, and 203 μM). The disks were split into half disks to reduce the time needed for equilibration, which was performed in 96 well plates at 37° C. The uptake ratio, RU, was measured and plotted versus the total bath concentration of Avidin (labeled+unlabeled, FIG. 13), where RU is defined as the total concentration of Avidin inside the cartilage (bound (CB) plus free (CF)) per intra-tissue water weight, normalized to the Avidin concentration in the equilibration bath (CBath):
Labeled and unlabeled Avidin were held to partition into the cartilage identically. At very low concentration of the labeled Avidin (≦1 μM), a high uptake of ˜120 was observed. When unlabeled Avidin was added to the bath, both species (labeled and unlabeled) could compete for the same (constant) number of binding sites available in the tissue (site density NT). […] To model the data of FIG. 13, a first-order, bimolecular, reversible reaction was produced to describe binding of Avidin to a single dominant binding species within cartilage. A theoretical model was adopted, (Garcia et al., Arch Biochem Biophys, 2003) previously used for characterizing the binding of soluble insulin like growth factor-1 (IGF-1) to IGF-binding proteins (IGF-BPs) that are uniformly enmeshed and fixed within cartilage matrix. According to this model, the equilibrium molar concentration of free solute (CF), bound solute (CB), intra-tissue binding site density (NT) and the equilibrium dissociation constant (KEQ) are related by the binding isotherm:
[formula] which is similar in form to a Langmuir adsorption isotherm. […]
[formula] […] Thus, K is determined by both steric hindrance and electrostatic (Donnan) interactions. […]

[2] = Non-equilibrium diffusive transport across cartilage disks (transport cell); assay type: in vitro ADME, bovine; conditions: 400 μm thick disks, 20° C.
Protocol: Real-time measurement of diffusive transport of Avidin and NeutrAvidin through young bovine cartilage disks (with intact superficial zone) was measured using a diffusion chamber consisting of two compartments as described previously (Garcia et al., Arch Biochem Biophys, 2003). Groups of three cartilage disks (6 mm diameter, 400 μm thick) were clamped by O-rings between the two compartments of the diffusion chamber (with total exposed tissue area for transport of 0.28 cm^2/disk), such that solute transport from the upstream compartment into and across the cartilage disks, simultaneously, could occur only from the superficial zone of the cartilage (schematic shown in the inset of FIG. 14). The compartments were treated with casein to prevent non-specific adsorption of solutes to the chamber surfaces. […] Aliquots were taken from each chamber at different time intervals, and fluorescence was measured using a plate reader.
The compartment volume of 25 ml is approximately 1,000× larger than the volume of the cartilage plugs in the configuration of FIG. 14 (inset). […] This configuration thereby focuses on quantitation of steady state solute flux and assessment of effective solute diffusivity within cartilage. […]
[formula] where δ is the thickness of the cartilage disk (˜400 μm). DEFF for Avidin was calculated to be 3.8×10^−7 cm^2/s. […]

[3] = dilute solution of DI water at pH 5; cited from earlier work

Substance: Avidin: positively charged globular glycosylated tetrameric protein, pI 10.5, 66 kDa, diameter ~7 nm (Invitrogen); SEQ ID NO 1
- equilibrium partition coefficient K [1]: ~6
- pKd ([1]; read-out: equilibrium dissociation constant KEQ): 3.82 and ~3.82
- time lag τlag to achieve the steady state flux [2]: ~35 min
- zeta potential [3]: 10 mV
